What is called Km is the substrate concentration at which the rate is half of its maximum. A word on the kcat: it is the maximal rate divided by the concentration of active sites. One may read the kcat/Km as the second-order rate constant that governs catalysis at low substrate concentration.

The chains are these.
B1: CtLac (Caldalkalibacillus thermarum TA2.A1) (protein)
chain: MKRILTLVLLLTVFIIVLVGCSTSPVDHSKMVHGEDDSTDNKQQEETQQIETSEGKVVINLEAKVTHWMFNNDLMEDIWTYNGSLPGQEIRVQEGDHVVINLTNSLDVPTSLHLHGVPVPNEMDGVPGVTQNAIMPGETFTYEFVADTPGTYWYHSHQDGANQIGMGLYGALVVEHKDQPDYDLDQVIMIDEWSSMGMADMDHSGMDHGDHGNMGDNSDQPPHAEMMNMMYDTLIVNGKASPVIEAIGVSEDDTIKLRFVNTGLFTQVITIPGHEFKVTHYDGQQVNEPELISDTAIRIAPAERYDVEIEMNQPGAWGIQIYAEENENLRGIVPLVYAGFEDEELQTADSIQSFLDISAYGSPMNVNFGEITKEFDMILGSDDGGETFTINGKQMTTKGFESHEDHEIYEVEEGDVVKVNIVNDTDVDHPMHLHGHFFYVVSRNGQPVKGSPILKETLNVRPNEAYEIVFVADNPGHWMFHCHELHHASGGMVSEVRYSGYTPAFTPDPNIPNKPE
notes: 516 aa, full-length gene incl; N-terminal region in pET28a(+) (NdeI/XhoI), His-tagged, E. coli BL21(DE3), HisTrap purified; primers encode N-terminus MKRILTLVL and C-terminus IPNKPE
B2: CtLac (Caldalkalibacillus thermarum TA2.A1; V243M) (protein)
chain: B1 chain with V243M
notes: as for B1
B3: CtLac (Caldalkalibacillus thermarum TA2.A1; V243D) (protein)
chain: B1 chain with V243D
notes: as for B1

Where a chain is given by its changes, count along the chain named. Names and notes keep the numbering of the source.

Substrate in this data set: COc1cccc(OC)c1O
The data set can be described thus: purified protein. It is filed as biochemical, Caldalkalibacillus thermarum. The note with it: 25 °C, pH 8.0, citrate phosphate buffer 50 mM, 1 mM CuCl2, air O2.
With B1, the Km was 157.2 µM, the kcat worked out at 1.1 s⁻¹ and the specificity constant (kcat/Km) was 7000 M⁻¹ s⁻¹.

On to B2, for which the Km worked out at 674.2 µM, the kcat worked out at 0.1 s⁻¹ and the kcat/Km amounted to 100 M⁻¹ s⁻¹.

B3: the Km turned out to be 137.2 µM, the kcat was determined as 2.7 s⁻¹ and the kcat/Km was 20000 M⁻¹ s⁻¹.

Source of the values: paper PMC9750922, “Improvement of thermoalkaliphilic laccase (CtLac) by a directed evolution and application to lignin degradation” (Applied Microbiology and Biotechnology, 2022).
